Measured values as given in the nanobody polyreactivity screen of Harvey et al. (2022).

Assay: yeast display, Sf9 membrane polyspecificity reagent, FACS + sequencing; frameworks hold sequencing errors
How it was run: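 Nanobodies from a synthetic yeast display library (Saccharomyces cerevisiae BJ5465), induced 36–48 hours with galactose, were stained 1 hour at 4 °C with 10% biotinylated, detergent-solubilized Sf9 membrane reagent, enriched on streptavidin microbeads, then FACS-sorted. Anti-HA (expression) and streptavidin (reagent binding) fluorescence set low and high (top ~1%) gates. Polyreactivity labels come from the gate of origin. Genes were colony-PCR amplified, MiSeq 2 × 250 sequenced and filtered by CDR length.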

Row | Sequence | polyreactivity (PSR sort gate)
1 | QVQLVESGGGLVQAGGSLRLSCAASGRTFSKYAMGWYRQAPGKERELVAAITSGGGTYYADSVKGRFTISRDNAKNTVYLQMNSLKPEDTAVYYCAVSVTTVSTYDYWGQGTQVTVSS | low polyreactivity
2 | QVQLVESGGGLVQAGGSLRLSCAASGRTFSLNAMGWYRQAPGKERELVAAINRGGTTYYADSVKGRFTISRDNAKNTVYLQMNSLKPEDTAVYDCAARVWGRWAGSYAWWHGYNSWGQGTQVSVSS | high polyreactivity
3 | QVQLVESGGGLVQAGGSLRLSCAASGRTFSLYAMGRYRQAPGKERELVAGISSSGGSTYYADSVKGRFTISRDNAKNTVYLQMNSLKQEDTAFYYCAAYRNTVIRNSDYWGQGTQVTVSS | high polyreactivity
4 | QVQLVESGGGLVQAGGSLRLSCAASGRTFSLYAMGWSRPAPGKERELVAAITRRGGSTYYADSVKGRFTMSRDNAKNTVYLQMNSLKPEDTAVYYCAADSGYPWELDYWGQGTEVTVSS | low polyreactivity
5 | QVQLVESGGGLVQAGGSLRLSCAASGRTFSPNTMGWYRQAPGKEREFVAAITASGDSTYYADSVKGRFTISRDNAKNTVYLQMNSLKPEDTAVYYCDTDSNWYWGFNYWGQGTKVTVSS | low polyreactivity
6 | QVQLVESGGGLVQAGGSLRLSCAASGRTFSPYMGWYRQAPGKEGELVAAISKSGGRTYYADSVKGRFTISRDNAKNTVYLQMNSLKPEDTAVYYCATTGNNYYYALYGYWGQGTQVTVSS | low polyreactivity
7 | QVQLVESGGGLVQAGGSLRLSCAASGRTFSQYDMGWYRQAPGKERELVAAISWSGGRTYYADSVKGRFTISRDNAKNTVYLQMNSLKPEDTAVYYCAAAYSWIRSPYNDPNRGYDYWGQGTQVTVSS | low polyreactivity
8 | QVQLVESGGGLVQAGGSLRLSCAASGRTFSRKAMRWYRQAPGKERELVASISRSGGSTYYADSVKGRFTISRDIAKNTVYLQMNSLKPEDTAVYYCAASYWHRRYDYWGQGTQVTVSS | high polyreactivity
9 | QVQLVESGGGLVQAGGSLRLSCAASGRTFSRNAMGWYRQAPGKERELVAAITSRGGTTYYADSVKGRFTISRDNAKNTVYLQMNSLKPEDTAVYYCNAAPRARSKVSYDYWGQGTQVTVSS | high polyreactivity
10 | QVQLVESGGGLVQAGGSLRLSCAASGRTFSRNAMGWYRQAPGKERELVAGISWRGTSTYYADSVKGRFTISRDNAKNTVYLQMNSLKPEYTAVYYCNRVYEYWSEYDYWGQGTQVTVSS | high polyreactivity
11 | QVQLVESGGGLVQAGGSLRLSCAASGRTFSRNAMGWYRQAPGKERELVATITSDGSTNYADSVKGRFTISRDNAKNTVYLQMNSLKPEDTSVYYCAADEASSRGYYDYDYWGQGTQVTVSS | low polyreactivity
12 | QVQLVESGGGLVQAGGSLRLSCAASGRTFSRYAMGWYRQAPGKERELVAAISYSGGRTYYADSVKGRFTISRDNAKNTVYLQMNSLKPEDTAVYYCAASWPGHTVDYDYWGQGTQVTVSS | high polyreactivity
13 | QVQLVESGGGLVQAGGSLRLSCAASGRTFSRYAMGWYRQAPWKERELVAAITSRGGNTYYADSVKGRFTISRDNAKNTVYLQMNSLIPEDTAVYYCNKVVRRGGGKNPDYDYWGQGTQVTVSS | high polyreactivity
14 | QVQLVESGGGLVQAGGSLRLSCAASGRTFSSNAMGWYRPAPGKEREMVAAITRRSGSTYYADSVKGRFTISRDNAKNTVYLQMNSLKPEDTAVYYCNADIDSYREMDYWGQGTQVTVSS | low polyreactivity
15 | QVQLVESGGGLVQAGGSLRLSCAASGRTFSSNTMGWYRQAPGKERELVAAISSTDSTYYADSVKGRFTISRDNAKNTVYLQMNSLKPEDTAVYYCNKVVGFRSYFGGYGYWGQGTQVTVSS | high polyreactivity
16 | QVQLVESGGGLVQAGGSLRLSCAASGRTFSSYAMGWYRQAPGKERELVAAISSGGSTYYADSVKGRFTISRDNAKNTVYLQMNSLKPEDTAVYYCNRRFYYKIGRGIRYFWGQVTQVTVSS | high polyreactivity
17 | QVQLVESGGGLVQAGGSLRLSCAASGRTFSSYVMGWYRQAPGKERELVASISRRGGSTYYADSVKGRFTISRDNAKNTVYLQMNSLKPEDTAVYYCNADLRGYGRGTDQYTFDYWGQGTQVTVSS | high polyreactivity
18 | QVQLVESGGGLVQAGGSLRLSCAASGRTFSTYAMGWYRQAPGKERELVAAITTSGGNTYYADSVKGRFTISRDNAKNTVYLQMNSLKPEDTAVYYCNADYFPTYDYWGQGTQVTVSS | low polyreactivity
19 | QVQLVESGGGLVQAGGSLRLSCAASGRTFSVNAMGWYRQAPGKEREFVAAISKSGGSTYYADSVKGRFTISRDNAKNTVYLQMNSLKPEDTAVYYCAADSNSVYPFDYWGQGTQVTVSS | high polyreactivity
20 | QVQLVESGGGLVQAGGSLRLSCAASGRTFSVNAMGWYRQAPGKERELVATISYRGGSTYYADSVKGRFTISRDNAKNTVYLQMNSLKPEDTAVYYCAAGWRYWGRIYRDYDSWGQGTQVTVSS | high polyreactivity
21 | QVQLVESGGGLVQAGGSLRLSCAASGRTFSWYAMGWYRQAPGKERELVAAITSDGSPYYADSVKGRFTISRDNAKNTVYLQMNSLKPEDTAVYYCAADTVYRSYYWGQGTQVTVSS | low polyreactivity
22 | QVQLVESGGGLVQAGGSLRLSCAASGRTFSWYAMGWYRQAPGKERELVAAITSVGSTNYADSVKGRFTISRDNAKNTVYLQMNSLKPEDTAVYYCAATIFVYSYRYYYWGQGTQVTVSS | low polyreactivity

Row | Sequence | polyreactivity (PSR sort gate)
23 | QVQLVESGGGLVQAGGSLRLSCAASGRTFSYNAMGWYRQAPGKERELVAAISYDGGRTYYADSVKGRFTISRDNAKNTVYLQMNSLKPEDTAVYYCAAYPYRGPHPWTIGDYWGQGTQVTVSS | low polyreactivity
24 | QVQLVESGGGLVQAGGSLRLSCAASGRTFSYYAMGWYRQAPAKERELVAAIRSTGSTNYADSVKGRFTISRDNAKNTVYLQMNSLKPEDTAVYYCAARKYYQRGYDYWGQGTQVTVSS | high polyreactivity
25 | QVQLVESGGGLVQAGGSLRLSCAASGRTFSYYAMGWYRQAPGKEREFVAAISSTGTSTYYADSVKGRFTISRDNAKNTFSLQMNRLKPEDTAVYYCNARVATYRLHSKFYYWGQGTQVTVSS | high polyreactivity
26 | QVQLVESGGGLVQAGGSLRLSCAASGRTFSYYAMGWYRQAPGKERELVAAISRSGVTTHYADSVKGRFTISRDNAKNTVYLQMNSLKTEDTAVYYCNKVYYYVGTLDYWGQGTQVTVSS | high polyreactivity
27 | QVQLVESGGGLVQAGGSLRLSCAASGRTFSYYAMGWYRQAPGKERELVAAISSGGSTNYADSVKGRFTISRDNAKNTVYLQMNSLKPEDTAVYYCATSSICGSGRVRWVTYYYWGQGTQVTVSS | low polyreactivity
28 | QVQLVESGGGLVQAGGSLRLSCAASGRTFSYYAMGWYRQAPGKERELVAAITSGGGRTYYADSVKGRFTISRDNAKNTVYLQMNSLKPEDTAVYYCNKAYVSRYDYWGQGTQVTVSS | high polyreactivity
29 | QVQLVESGGGLVQAGGSLRLSCAASGRTFSYYAMGWYRQAPGKERELVAAITSSGGRTTYADSVKGRFTISRDNAKNTVYLQMNSLKPEDTAVYYCAARHTYQGPGTYPMYYWGQGTQVTVSS | high polyreactivity
30 | QVQLVESGGGLVQAGGSLRLSCAASGRTFSYYAMGWYRQAPGKERELVASINWSGGSTYYADSVKGRFTISRDNAKNTVYLQMNSLKPEDTAVYYCAADSWPFGYYYWGQGTQVTVSS | high polyreactivity
31 | QVQLVESGGGLVQAGGSLRLSCAASGRTFSYYSMGWYRQAPGKERELVAAITSGGGRTYYADSVKGRFTISRDNAKNTVYLQMNRLKPEDTAVYYCNALYTLYNGYDYWGQGTQVTVSS | high polyreactivity
32 | QVQLVESGGGLVQAGGSLRLSCAASGRTFSYYTMGWYRQAPGKERELVAAITSSGGSTYYADSVKGRFTISRDNAKNTVYLQMNSLKPEDTAVYYCAVLNYWAMDYWGQGTQVTVSS | high polyreactivity
33 | QVQLVESGGGLVQAGGSLRLSCAASGRTFTAYTMGWYRQAPGKERELVASISSGVTYADSVKGRFTISRDNAKNTVYVQMNSLKPEDTAVYYCAARLWYVQGYVPYVHHRFDYWGQGTQVTVSS | low polyreactivity
34 | QVQLVESGGGLVQAGGSLRLSCAASGRTFTAYTMGWYRQAPGKERELVDSISSGVTYADSVKGRFTISRDNAKNTVYLQMNSLKPEDTAVYYCAARLWYVQGYVPYVHHRFDYWGQGTQVTVSS | low polyreactivity
35 | QVQLVESGGGLVQAGGSLRLSCAASGRTFTDYTMGWSRQAPGKERELVASISSGVTYADSVKGRFTISRDNAKYTVYLQMNSLKPEDTEVYYCAARLWYVQGYVPYVHHRFDYWGQGTQVTVSS | low polyreactivity
36 | QVQLVESGGGLVQAGGSLRLSCAASGRTFTFNAMGWYRQAPGKERELVARIDWRGITYADSVKGRFTISRDNAKNTVYLQMNSLKPEDTAVYYCAAVWLHIRGFFFQYDYWGQGTQVTVSS | low polyreactivity
37 | QVQLVESGGGLVQAGGSLRLSCAASGRTFTGSVMGWYRKAPGKERELVAAISWNGGRTYYADSVKGRFTLSRDNAKNTVYLQMYSLKPEDTGVYLCGTYGYNSYDYWGHGTQVTVSS | high polyreactivity
38 | QVQLVESGGGLVQAGGSLRLSCAASGRTFTGYAMGWYRQAPGKEREFVAAITQRGGSTYYADSVKGRFTISRDNEKNTVYLQMNSLKAEDTAVYYCAARRRYKMDYWGQGTQVTVSS | high polyreactivity
39 | QVQLVESGGGLVQAGGSLRLSCAASGRTFTINAMGWYRQAPGKERELVAAITSGGSTNYADSVKGRFTISRDNAKNTVYLQMNSLKPEDTAVYYCNAGYYSRRYYFSGRLDYWGQGTQVTVSS | low polyreactivity
40 | QVQLVESGGGLVQAGGSLRLSCAASGRTFTIYAMGWYRQAPGKEREFVASITGSDGSTYYADSVKGRFTISRDNAKNTVYLQMNSLKPEDTAVYYCAAATSSAYDYWGQGTQVTVSS | low polyreactivity
41 | QVQLVESGGGLVQAGGSLRLSCAASGRTFTIYAMGWYRQAPGKERELVAAISWSDGSTYYADSVKGRFTISRDNAKNTVYLQMNSLKPEDTAVYSCAREVYGDASAPDMDYWGQGTQVTVSS | low polyreactivity
42 | QVQLVESGGGLVQAGGSLRLSCAASGRTFTKYAMGWDRQAPGKERELVAVISVIGGTNYADSVKWRFTISRDNAKNTVYLQMNSLKPEDTAVYYCAAVSREHDYWGQGTQVTVSS | high polyreactivity
43 | QVQLVESGGGLVQAGGSLRLSCAASGRTFTLYAMGWSRPAPGKERELVAAIRWSGSSTYYADSVKGRFTISRDNSKNTVYLQMNSLKPEDTAVYYCAARAGRYDRYGYWGQGTQVTVSS | high polyreactivity
